From patent US20200048648 come the findings set out here.

What all share (assay): cell_activity
Series [1] has as its system MsCOMT_T01.1 TALE nuclease right monomer (synthetic construct). The settings on record: value for nuclease pair; alfalfa protoplasts, 28 C, 2 days.
Series [2] relates to MsCOMT_T02.1 TALE nuclease right monomer (synthetic construct). The settings on record: value for nuclease pair; alfalfa protoplasts, 28 C, 2 days.
Series [3] concerns MsCOMT_T03.1 TALE nuclease right monomer (synthetic construct). The conditions noted are these: value for nuclease pair; alfalfa protoplasts, 28 C, 2 days.
For series [4], the system named is MsCOMT_T02.1 TALE nuclease left monomer (synthetic construct). The conditions noted are these: value for nuclease pair; alfalfa protoplasts, 28 C, 2 days.
The test system of series [5] is MsCOMT_T01.1 TALE nuclease left monomer (synthetic construct). The settings on record: value for nuclease pair; alfalfa protoplasts, 28 C, 2 days; left site boundary inferred from 15 bp spacer.
Series [6] concerns MsCOMT_T03.1 TALE nuclease left monomer (synthetic construct). The conditions noted are these: value for nuclease pair; alfalfa protoplasts, 28 C, 2 days.

Take “ACATATCAGATGAAGAA (double strand) [MsCOMT_T01.1 right half-site (top strand)]”: the activity (% mutation frequency) in series [1] turned out to be 12.6.
“CTGGACCTGGTGCTCAA (double strand) [MsCOMT_T02.1 right half-site (top strand)]”: the activity (% mutation frequency) in series [2] is 15.9.
In turn, “GCACCAGTTATGTTGGA (double strand) [MsCOMT_T03.1 right half-site (top strand)]” registered an activity (% mutation frequency) in series [3] of 14.1.
Sequence “TGAACTTGATCTCTTAG (double strand) [MsCOMT_T02.1 left half-site]” came in with an activity (% mutation frequency) in series [4] of 15.9.
As to “TTCAACAGGTGAAACTC (double strand) [MsCOMT_T01.1 left half-site]”, the activity (% mutation frequency) in series [5] was found to be 12.6.
In the case of “TTGCTTCTCAGCTACCA (double strand) [MsCOMT_T03.1 left half-site]”, in series [6], the activity (% mutation frequency) was found to be 14.1.
